Source: US8415306B2, “Insulin-like growth factor 1 receptor binding peptides” (Janssen Biotech, Inc., priority 2010, dated 2013)

Tests used:
sIGF1R [1] = target: T1, sIGF1R (Homo sapiens, UniProt P08069); assay: competition ELISA of PG-peptide fusions with IGF-1 on sIGF1R; assay type: binding; conditions: PG-peptide fusion, IGF-1 400 nM final
T1 construct: hexahistidine (C); purchased R&D Systems
Procedure: (§1) Relative binding affinities of the PG-peptide fusions for sIGF1R were measured using ELISA. The Kds were determined using GraphPad Prism 4 software with a one site binding equation. 100 μl of 2 μg/ml sIGF1R(R&D Systems, Minneapolis, Minn.) in Dulbecco's Phosphate Buffer Saline (DPBS (−/−)) was coated onto a 96 well Black Maxisorp plates (Nunc, Rochester, N.Y.) overnight at 4° C. The plates were washed with TBST and the wells blocked with 200 μl/well Starting Block T20 (TBS) (Pierce, Rockford, Ill.) for 1 hr, room temperature with 300 rpm shaking. 75 μl/well of purified, serially diluted PG-peptide fusions, starting concentration 40 μM, was added into the wells and incubated for 1 h, room temperature with 300 rpm mixing; the volume was brought up to 100 μl with Starting Block T20. The plates were washed 3× with TBST and then probed with 100 μl/well Peroxidase labeled-Rabbit antibody (1:5000) (Rockland, Gilbertsville, Pa.), washed, and the signal was detected using 100 μl/well POD substrate (Roche, Indianapolis, Ind.). Chemiluminescence was detected using a Molecular Devices M5 plate reader.
For competition assays, insulin-like growth factor 1 (IGF-1) (R&D Systems, Minneapolis, Minn.) was added to the Starting Block T20 used to bring the volume up to 100 μl at a concentration of 400 nM final.

sIGF1R [2] = target: T1, sIGF1R; assay: ELISA relative binding affinity of PG-peptide fusions for sIGF1R; conditions: for EC50: PG-peptide fusion, ELISA on 2 μg/ml coated sIGF1R, one site binding equation
Text: The identified IFG1R binding peptides were cloned in-frame to the C-terminus of the protein G IgG domain (PG) in a modified pET17b vector (EMD Chemicals, Gibbstown, N.J.) having a ligation independent cloning site (LIC) to generate PG-peptide fusions. The IgG binding domain of protein G is stable and thus enabled easy purification of the fusion protein from bacterial lysates. The amino acid sequence of the protein G IgG domain used is shown in SEQ ID NO: 31. The PG-peptide fusions were expressed in bacteria upon 1 mM IPTG induction and purified using IgG Sepharose beads (GE Healthcare Life Sciences, Piscataway, N.J.) from the bacterial lysates cleared by centrifugation at 16,000 g, 4° C. for 20 min.
as §1

[3] = test system: rat brain microvascular endothelial cell model; assay: in vitro BBB model, transcytosis of peptide-AP fusions; assay type: cell-based; conditions: 25 μg peptide-AP fusion in top chamber, detected in bottom chamber at 15 and 30 minute by ELISA
Procedure: Select sIGF1R binding peptides were further characterized in the in vitro blood-brain barrier model, rat brain microvascular endothelial cell model.
Rat Brain capillary endothelial cells were prepared as described (Perriere et al., J. Neurochem. 93:279-289, 2005). Briefly, brains from 6-8 week old male Sprague Dawley rats were rolled on 3 MM chromatography paper to remove the meniges, cut sagitally, and the white matter dissected leaving the cortices, which were then minced thoroughly. The minced cortices were transferred to a 50 ml polypropylene conical tube with 20 ml DMEM supplemented with 39 units/ml DNase I (Worthington, Lakewood, N.J.) and 0.7 mg/ml Collagenase type 2 (Worthington, Lakewood, N.J.) at final concentration and incubated at 37° C. with gentle mixing for 1.25 hrs. After a brief centrifugation the resultant pellet was resuspended in 20 ml 20% BSA (Sigma, St. Louis, Mo.) in DMEM, centrifuged and the microvessel enriched pellet was isolated a digested a second time with 20 ml DMEM supplemented with 39 units/ml DNase 1 and 1 mg/ml Collagenase/Dispase (Roche, Indianapolis, Ind.) at 37° C. for 1 hr. The digestion was briefly centrifuged and the resulting cell pellet was resuspended in 2 ml DMEM and subsequently layered onto the top of a 33% continuous Percoll gradient, centrifuged, and the enriched microvessel fraction was removed and briefly centrifuged a second time. The cell pellet was resuspended in 10 ml complete rat brain microvascular endothelial cell growth media (DMEM, 20% Plasma Derived Serum (PDS), 100 μg/ml Heparin, 2 mM L-Glutamine, 100 U/ml penicillin, 100 μg/ml streptomycin, 0.25 μg/ml amphotericin) and plated onto a 10 cm tissue culture dish for 4 hrs at 37° C., 5% CO2. After 4 hrs cells that remained unattached were pipetted off and counted in a hemacytometer using Trypan Blue. The cells were plated into the top chamber of the Transwells (0.4 μm pore size, diameter 1.12 cm, Corning, Acton, Mass.) treated with 400 μg/ml collagen type IV (Sigma, St. Louis, Mo.) and 100 μg/ml fibronectin (Sigma, St. Louis, Mo.) at a density of 6×10^5 cells/ml, 500 μl per well. 1 ml of growth media was placed into the bottom chamber. Both chambers were supplemented with 4 μg/ml puromycin (Clontech, Mountain View, Calif.) and the plates were incubated at 37° C., 5% CO2 overnight. The next day the media was changed with fresh complete culture media with 4 μg/ml puromycin and the cells were placed back into the incubator overnight. The next day the media was changed with complete culture media and again two days after. Cultures were monitored by eye till they reached 100% confluence, ˜6-7 days after seeding. The developed in vitro BBB model had high transendothelial electrical resistance (>100 ohms-cm^2), measured using Millicell-ERS (Millipore, Billercia, Mass.) and very low Na-Fluorescein permeability (about 1-5×10^−6 cm/s).
25 μg of purified peptide-AP fusions were added to the top chamber of the in vitro BBB model and transcytosed peptide-AP fusions were detected at 15 and 30 minute timepoints in the bottom chamber using ELISA. Briefly, 75 μl of each sample was transferred to plates coated with 5 μg/ml mouse monoclonal anti-bacterial AP antibody (Sigma, St. Louis, Mo.). The plate was incubated for 1 hr, washed, the signal was developed with Attophos Substrate (Roche, Indianapolis, Ind.) according to manufacturer's recommendation, and read using a Molecular Devices M5 plate reader with 440 nm excitation and 550 nm emission.

insulin receptor = insulin receptor (Homo sapiens, UniProt P06213); assay: phage lysate binding to insulin receptor (cross-reactivity)
Procedure: Total of 384 individual phage lysates from the panning were tested for binding specificity towards sIGF1R in a solid phase phage ELISA. Briefly, 100 μl/well of 5 μg/ml sIGF1R (R&D Systems, Minneapolis, Minn.) was bound to Black Maxisorp Plates (Nunc, Rochester, N.Y.), 25 μl of phage lysate added, and the reaction was detected using anti-M13-HRP antibody (EMD Biosciences, Gibbstown, N.J.) and POD substrate (Roche, Indianapolis, Ind.), and the signal detected using a TEKAN plate reader. […] Positive lysates were defined as clones with a sIGF1R specific signal that was three fold above the background of the negative control. A total of 13 clones with unique peptide sequences were obtained with confirmed binding to the sIGF1R (Table 1). From these 13 clones, 3 (clones 5, 13 and 16) cross-reacted with the insulin receptor.

Competed by IGF-1 (sIGF1R [1]) | EC50 (sIGF1R [2]) | cross-reaction with the insulin receptor (insulin receptor) | binding curve shape (binding profile) (sIGF1R [2]; PG-peptide fusion on sIGF1R) | Substance | Transcytosis [3]
yes | 850 nM |  |  | 14 (VECDTPSITFSPGLEALFWNTCSP; IGF1R binding peptide from pIX library) [Clone 14] | no
 | 1000 nM |  |  | 6 (AECEWPWLTLELCQS; IGF1R binding peptide from pIX library) [Clone 6] | yes
yes | > 50000 nM | cross-reacted |  | 13 (WHCTPLTQIADPGSIIHILECTV; IGF1R binding peptide from pIX library) [Clone 13] | no
yes | 8200 nM | cross-reacted |  | 16 (AGCPSPMPPVDPGFYSAIVQLCRE; IGF1R binding peptide from pIX library) [Clone 16] | yes
yes | 1200 nM |  |  | 11 (HTCFYPTLMPPELCFD; IGF1R binding peptide from pIX library) [Clone 11] | no
 | 2600 nM |  |  | 15 (MTCAWHTLHTDPGLTPQLTLPCIY; IGF1R binding peptide from pIX library) [Clone 15] | 
yes |  |  | bellshaped | 17 (DDIDEFLHQLHNLVNNVH; IGF1R binding peptide from pIX library) [Clone 17] | no
 | 1800 nM |  |  | 7 (PFCYSGGPLPYPCTY; IGF1R binding peptide from pIX library) [Clone 7] | 
 | 4300 nM |  |  | 10 (LSCYDPTLRTLYCHV; IGF1R binding peptide from pIX library) [Clone 10] | 
 | 1600 nM |  |  | 8 (PVCPSFCYDQYVCPT; IGF1R binding peptide from pIX library) [Clone 8] | yes
 | 750 nM | cross-reacted |  | 5 (TGCDFPELCRGCHP; IGF1R binding peptide from pIX library) [Clone 5] | yes
 | 3500 nM |  |  | 9 (FTCAVYSLSELDCRD; IGF1R binding peptide from pIX library) [Clone 9] | no
 | 1800 nM |  |  | 12 (SNCPPLDMRLTELCVM; IGF1R binding peptide from pIX library) [Clone 12] | yes
